Values joined by “and” are separate entries in the source; they are usually repeats but may differ in a detail not shown here. Equal values may be shown once. Read-outs that look alike come from different tables or passages of the source. Ends that are not written are not given here.

Test [1] has as its system rabbit anti-PIF monoclonal antibody. The test is described as follows: PIF colorimetric ELISA using rabbit anti-PIF monoclonal antibody, epitope mapping with PIF peptides of various length. The class given is binding. Particulars: for % Recovery by Rabbit Monoclonal Antibody: representative value of three repeats; for recovery by PIF colorimetric ELISA using rabbit anti-PIF monoclonal antibody: Table 3, spike concentration not given. As to the method: (§1) To study PIF peptide and its derivatives of different length for binding to rabbit anti-PIF monoclonal antibody and rabbit anti-PIF polyclonal antibody, PIF peptides of various lengths as listed in Table 2 was synthesized, reconstituted in PBS and two different concentrations were tested by respective colorimetric ELISA following standard protocol. The standards were run in duplicate and the samples were run in triplicate and repeated three times.
A general note: In an ELISA, binding on a coated surface is turned into a signal by an enzyme label.

The subject of test [2] is rabbit anti-PIF polyclonal antibody. The test is described as follows: PIF colorimetric ELISA using rabbit polyclonal antibody, epitope mapping with PIF peptides of various length. The note with it: for % recovery by Rabbit Polyclonal Antibody: representative value of three repeats; for recovery by PIF colorimetric ELISA using rabbit polyclonal antibody: Table 3, spike concentration not given. In kind it is binding. As to the method:
as §1

For test [3], the target named is T1, rabbit monoclonal anti-PIF antibody Clone #30.
T1 chain 1: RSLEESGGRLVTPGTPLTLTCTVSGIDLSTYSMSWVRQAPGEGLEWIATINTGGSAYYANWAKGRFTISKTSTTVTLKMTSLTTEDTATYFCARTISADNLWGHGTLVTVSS
T1 chain 2: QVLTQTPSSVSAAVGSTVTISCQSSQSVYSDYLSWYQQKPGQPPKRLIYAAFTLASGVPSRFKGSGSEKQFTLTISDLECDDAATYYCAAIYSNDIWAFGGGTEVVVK
Description: competitive microarray immunoassay; Clone #30 on goat anti-rabbit spots; competitor A647-sPIF tracer.

Test [4] addresses T1, rabbit monoclonal anti-PIF antibody …. The test is described as follows: competitive ELISA; Clone #30 via goat anti-rabbit; competitor biotin-PIF tracer.
Test [5] shares this target. The test is described as above.
Test [6] has the same target. Description: ELISA; Clone #30 via goat anti-rabbit; biotin-PIF tracer without unlabeled PIF.

For the molecule “P8-15: PIF peptide, amino acid locations 8-15 (S A N K P S D D) (SANKPSDD) [Clone P8-15]”, the “% Recovery by Rabbit Monoclonal Antibody” value in test [1] (spike concentration 100 ng/ml) and in test [1] (spike concentration 200 ng/ml) was 0% in each case. Also, the “% recovery by Rabbit Polyclonal Antibody” value in test [2] (spike concentration 100 ng/ml) and in test [2] (spike concentration 200 ng/ml) was 0% each time.

For the molecule “P5-10: PIF peptide, amino acid locations 5-10 (K P G S A N) (KPGSAN) [Clone P5-10]”, the “% Recovery by Rabbit Monoclonal Antibody” value in test [1] (spike concentration 100 ng/ml) and in test [1] (spike concentration 200 ng/ml) was 0% in each case. For the same molecule, the “% recovery by Rabbit Polyclonal Antibody” value in test [2] (spike concentration 100 ng/ml) and in test [2] (spike concentration 200 ng/ml) was 0% each time.

In the case of “P10-15: PIF peptide, amino acid locations 10-15 (N K P S D D) (NKPSDD) [Clone P10-15]”, the “% Recovery by Rabbit Monoclonal Antibody” value in test [1] (spike concentration 100 ng/ml) and in test [1] (spike concentration 200 ng/ml) was 0% throughout. The “% recovery by Rabbit Polyclonal Antibody” value in test [2] (spike concentration 100 ng/ml) and in test [2] (spike concentration 200 ng/ml) was 0% throughout.

“P8-13: PIF peptide, amino acid locations 8-13 (S A N K P S) (SANKPS) [Clone P8-13]”: the “% Recovery by Rabbit Monoclonal Antibody” value in test [1] (spike concentration 100 ng/ml) and in test [1] (spike concentration 200 ng/ml) was 0% each time. The “% recovery by Rabbit Polyclonal Antibody” value in test [2] (spike concentration 100 ng/ml) and in test [2] (spike concentration 200 ng/ml) was 0% in each case.

For the molecule “P1-13: PIF peptide, amino acid locations 1-13 (M V R I K P G S A N K P S) (MVRIKPGSANKPS) [Clone P1-13]”, the “% Recovery by Rabbit Monoclonal Antibody” value in test [1] (spike concentration 100 ng/ml) and in test [1] (spike concentration 200 ng/ml) was 0% throughout. Further, the “recovery by PIF colorimetric ELISA using rabbit polyclonal antibody” value (shortened to “recovery … using rabbit polyclonal antibody”) in test [2] is “about 40%”. Also, the “% recovery by Rabbit Polyclonal Antibody” value in test [2] (spike concentration 100 ng/ml) is reported as 49.8%; in test [2] (spike concentration 200 ng/ml), 31.1%.

Take “P1-7: PIF peptide, amino acid locations 1-7 (M V R I K P G) (MVRIKPG) [Clone P1-7]”: the “% Recovery by Rabbit Monoclonal Antibody” value in test [1] (spike concentration 100 ng/ml) and in test [1] (spike concentration 200 ng/ml) was 0% in each case. Also, the “% recovery by Rabbit Polyclonal Antibody” value in test [2] (spike concentration 100 ng/ml) and in test [2] (spike concentration 200 ng/ml) was 0% each time.

Take “P1-14: PIF peptide, amino acid locations 1-14 (M V R I K P G S A N K P S D) (MVRIKPGSANKPSD) [Clone P1-14]”: the “recovery by PIF colorimetric ELISA using rabbit anti-PIF monoclonal antibody” value in test [1] is “about 3.8%”. Further, the “% Recovery by Rabbit Monoclonal Antibody” value in test [1] (spike concentration 100 ng/ml) and in test [1] (spike concentration 200 ng/ml) was 3.8% in each case. Further, the “recovery … using rabbit polyclonal antibody” value in test [2] was “about 40%”. Also, the “% recovery by Rabbit Polyclonal Antibody” value was determined as 44.6% in test [2] (spike concentration 100 ng/ml) and 30.0% in test [2] (spike concentration 200 ng/ml).

Regarding MVRIKPGSANKPSDD [Clone P1-15], in test [1], the “recovery by PIF colorimetric ELISA using rabbit anti-PIF monoclonal antibody” value is 100%. Also, the “% Recovery by Rabbit Monoclonal Antibody” value in test [1] (spike concentration 500 ng/ml) and in test [1] (spike concentration 1000 ng/ml) was 100.0% in each case. Further, the “recovery … using rabbit polyclonal antibody” value in test [2] is on record as 100%. The “% recovery by Rabbit Polyclonal Antibody” value is listed as 115.0% in test [2] (spike concentration 500 ng/ml) and 101.4% in test [2] (spike concentration 1000 ng/ml).

B1: preimplantation factor (PIF), full-length 15-amino acid peptide (peptide)
peptide: MVRIKPGSANKPSDD
modifications: not checked
As for B1, in test [3], the % B/B0 at 15.625 pg/mL was 122%, the % B/B0 at 31.25 pg/mL is 69%, the % B/B0 at 62.5 pg/mL is 38% and the % B/B0 at 125 pg/mL stood at 43%. Besides, in test [3], the % B/B0 at 250 pg/mL was 19%, the Average Mean RFU of bound tracer at 15.625 pg/mL was 10900 RFU, the Average Mean RFU of bound tracer at 31.25 pg/mL was 6170 RFU and the Average Mean RFU of bound tracer at 62.5 pg/mL worked out at 3350 RFU. In test [3], this molecule returned an Average Mean RFU of bound tracer at 125 pg/mL of 3850 RFU, an Average Mean RFU of bound tracer at 250 pg/mL of 1690 RFU and an Average Mean RFU of bound tracer at 500 pg/mL of 285 RFU. In test [4], this molecule returned a % Bound at 1 pg/mL of 93.7%, a % Bound at 5 pg/mL of 92.8%, a % Bound at 10 pg/mL of 91.7% and a % Bound at 25 pg/mL of 90%. Moreover, in test [4], the % Bound at 50 pg/mL was found to be 87%, the % Bound at 100 pg/mL came out at 89.9%, the % Bound at 250 pg/mL stood at 77.3% and the % Bound at 500 pg/mL came out at 61.1%. In test [4], this molecule came in with a % Bound at 1000 pg/mL of 49.8%, a % Bound at 2000 pg/mL of 27%, an AvgNetRLU at 1 pg/mL of 2.23e+07 RLU and an AvgNetRLU at 5 pg/mL of 2.21e+07 RLU. Moreover, in test [4], the AvgNetRLU at 10 pg/mL was determined as 2.18e+07 RLU, the AvgNetRLU at 25 pg/mL was determined as 2.14e+07 RLU, the AvgNetRLU at 50 pg/mL was 2.07e+07 RLU and the AvgNetRLU at 100 pg/mL worked out at 2.14e+07 RLU. In addition, in test [4], the AvgNetRLU at 250 pg/mL is 1.84e+07 RLU, the AvgNetRLU at 500 pg/mL was found to be 1.45e+07 RLU, the AvgNetRLU at 1000 pg/mL stood at 1.18e+07 RLU and the AvgNetRLU at 2000 pg/mL is 6.41e+06 RLU. Moreover, in test [4], the MeanValue (RLU) at 1 pg/mL is 2.75e+07 RLU, the MeanValue (RLU) at 5 pg/mL is 2.73e+07 RLU, the MeanValue (RLU) at 10 pg/mL stood at 2.7e+07 RLU and the MeanValue (RLU) at 25 pg/mL stood at 2.66e+07 RLU. In test [4], this molecule yielded a MeanValue (RLU) at 50 pg/mL of 2.59e+07 RLU, a MeanValue (RLU) at 100 pg/mL of 2.66e+07 RLU, a MeanValue (RLU) at 250 pg/mL of 2.36e+07 RLU and a MeanValue (RLU) at 500 pg/mL of 1.97e+07 RLU. In test [4], the MeanValue (RLU) at 1000 pg/mL is 1.7e+07 RLU; the MeanValue (RLU) at 2000 pg/mL turned out to be 1.16e+07 RLU; the Values (RLU) at 1 pg/mL is 2.77e+07 RLU and 2.73e+07 RLU; the Values (RLU) at 5 pg/mL was 2.75e+07 RLU and 2.7e+07 RLU. Further, in test [4], the Values (RLU) at 10 pg/mL was 2.72e+07 RLU and 2.68e+07 RLU; the Values (RLU) at 25 pg/mL was 2.66e+07 RLU; the Values (RLU) at 50 pg/mL is 2.64e+07 RLU and 2.53e+07 RLU; the Values (RLU) at 100 pg/mL is 2.69e+07 RLU and 2.62e+07 RLU. Moreover, in test [4], the Values (RLU) at 250 pg/mL was 2.37e+07 RLU and 2.34e+07 RLU; the Values (RLU) at 500 pg/mL is 2.03e+07 RLU and 1.91e+07 RLU; the Values (RLU) at 1000 pg/mL is 1.75e+07 RLU and 1.66e+07 RLU; the Values (RLU) at 2000 pg/mL was 1.19e+07 RLU and 1.14e+07 RLU. Also, in test [5], the % Bound at 1 pg/mL amounted to 96.6%, the % Bound at 10 pg/mL was 93.6%, the % Bound at 25 pg/mL was 91.1% and the % Bound at 250 pg/mL is 81.4%. In test [5], the % Bound at 500 pg/mL was 69.9%, the AvgNetRLU at 1 pg/mL turned out to be 2.3e+07 RLU, the AvgNetRLU at 10 pg/mL worked out at 2.23e+07 RLU and the AvgNetRLU at 25 pg/mL was 2.16e+07 RLU. Also, in test [5], the AvgNetRLU at 250 pg/mL is 1.93e+07 RLU, the AvgNetRLU at 500 pg/mL stood at 1.66e+07 RLU, the MeanValues (RLU) at 1 pg/mL was determined as 2.82e+07 RLU and the MeanValues (RLU) at 10 pg/mL is 2.74e+07 RLU. Moreover, in test [5], the MeanValues (RLU) at 25 pg/mL stood at 2.68e+07 RLU; the MeanValues (RLU) at 250 pg/mL is 2.45e+07 RLU; the MeanValues (RLU) at 500 pg/mL worked out at 2.18e+07 RLU; the Values (RLU) at 1 pg/mL is 2.86e+07 RLU and 2.77e+07 RLU. In addition, in test [5], the Values (RLU) at 10 pg/mL was 2.79e+07 RLU and 2.7e+07 RLU; the Values (RLU) at 25 pg/mL is 2.72e+07 RLU and 2.65e+07 RLU; the Values (RLU) at 250 pg/mL was 2.48e+07 RLU and 2.43e+07 RLU; the Values (RLU) at 500 pg/mL is 2.23e+07 RLU and 2.13e+07 RLU.

B2: biotin labeled PIF (peptide)
peptide: MVRIKPGSANKPSDD
modifications: not fully specified
Regarding B2, in test [6], the % Bound, tracer alone (0 pg/mL PIF) worked out at 96%; the AvgNetRLU, tracer alone (0 pg/mL PIF) was determined as 2.28e+07 RLU; the MeanValue (RLU), tracer alone (0 pg/mL PIF) is 2.8e+07 RLU; the Values (RLU), tracer alone (0 pg/mL PIF) was 2.86e+07 RLU and 2.74e+07 RLU.

Source of the values: patent US20230400471A1, “SYSTEMS, COMPOSITIONS AND METHODS OF DETERMINING VIABILITY OF EMBRYOS USING THE SAME” (BioIncept, LLC, priority 2020, published 2023).
